Paper PMC2629652 (FEBS letters, 2008)
Like-named read-outs stand apart in the source and are kept apart here.

T1: FprA1 (Clostridium acetobutylicum, UniProt Q97K92)
T1 sequence (Q97K92 2-392): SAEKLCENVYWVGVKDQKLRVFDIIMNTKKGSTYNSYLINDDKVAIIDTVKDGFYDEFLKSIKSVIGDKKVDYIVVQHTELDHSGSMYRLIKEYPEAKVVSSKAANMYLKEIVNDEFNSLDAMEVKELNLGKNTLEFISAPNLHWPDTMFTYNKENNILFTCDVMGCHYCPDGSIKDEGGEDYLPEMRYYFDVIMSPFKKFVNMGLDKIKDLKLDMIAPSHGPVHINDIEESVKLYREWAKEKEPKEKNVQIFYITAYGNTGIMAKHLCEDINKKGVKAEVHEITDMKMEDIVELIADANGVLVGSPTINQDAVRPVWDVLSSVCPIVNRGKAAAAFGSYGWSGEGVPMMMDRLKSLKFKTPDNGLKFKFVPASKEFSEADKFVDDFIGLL


How the values were obtained:
FprA1 = biological target: T1, FprA1; experiment: TLC of the flavin cofactor; type: binding; settings: co-purified oxidized flavin, 378 and 450 nm bands
SEC [1] = biological target: the molecule itself; experiment: SEC
SEC [2] = biological target: the molecule itself; experiment: SEC; remark: listed apart in the source

Molecule | TLC of the flavin cofactor; UV-visible absorption of purified protein (FprA1) | stoichiometry N (SEC [1]) | stoichiometry N (SEC [2])
Cc1cc2nc3c(=O)[nH]c(=O)nc-3n(C[C@H](O)[C@H](O)[C@H](O)COP(=O)(O)O)c2cc1C [FMN] | TLC analysis identified FMN as the flavin cofactor in both FprA1 and FprA2 | – | –
C. acetobutylicum flavo-diiron protein FprA1 (enzyme, UniProt Q97K92 1-392, looked up) MSAEKLCENVYWVGVKDQKLRVFDIIMNTKKGSTYNSYLINDDKVAIIDTVKDGFYDEFLKSIKSVIGDKKVDYIVVQHTELDHSGSMYRLIKEYPEAKVVSSKAANMYLKEIVNDEFNSLDAMEVKELNLGKNTLEFISAPNLHWPDTMFTYNKENNILFTCDVMGCHYCPDGSIKDEGGEDYLPEMRYYFDVIMSPFKKFVNMGLDKIKDLKLDMIAPSHGPVHINDIEESVKLYREWAKEKEPKEKNVQIFYITAYGNTGIMAKHLCEDINKKGVKAEVHEITDMKMEDIVELIADANGVLVGSPTINQDAVRPVWDVLSSVCPIVNRGKAAAAFGSYGWSGEGVPMMMDRLKSLKFKTPDNGLKFKFVPASKEFSEADKFVDDFIGLL | – | 2 | –
C. acetobutylicum flavo-diiron protein FprA2 (enzyme, UniProt Q97GC0 1-400, looked up) MPAIKIKDNIFSVGVLNPSLRIFDIIMKTEYGTSYNAYLIKGKKNVLIDTVHGRFFDEYLENIKSVIDPSSIDYVIMNHCEPDHSGSLARLYEVAPQIKVIASNAGKIYLKNITNKETLDVKAVKTNDTLDIGNGKVLKFAIAPFLHWPDSMFTILEEDKIAFTCDFLGCHFCEPRMFDTKITYMPKYEKSFKEYYDAIFSPFKPYVVKGLDILDALDLDFIATSHGPILTREGLLAASKQKYRDLSSEIQSTTKYIPIFYCSAYGNTEILANEIASGIKSVLNDANIEMLDIINYDYSDLKEKINICDAFMLGTPTINKDALFPIWELIGGIDAVNCKNKPASAFGSFGWSGEAIPFVISRLKELKLKVFQDGFTCLFVPSEDDIKKAFKFGEDFAKSI | – | 4 | 2
